Test results as given in US20090098148A1.

Biological target: epidermal growth factor receptor (EGFR) on A431 human epidermoid cells (human) (UniProt P00533)
Experiment: cell-based or functional assay

mean fluorescence activity (biotin-β-galactosidase delivered into each A431 cell, FACS): 214
positive cells (delivery of biotin-β-galactosidase into A431 cells, staining and FACS): > 99%
Substance: streptavidin-TGF-α fusion protein (ST-TGF) (from UniProt P22629 40-157; P01135 40-89)
